{"source": "the DeepSol protein solubility set"}
{"assay": "soluble on expression in E. coli; label from the status in PepcDB or PDB records"}
{"sequence": "MERSALVTGGASGLGRAAALALKARGYRVVVLDLRREGEDLIYVEGDVTREEDVRRAVARAQEEAPLFAVVSAAGVGLAEKILGKEGPHGLESFRRVLEVNLLGTFNVLRLAAWAMRENPPDAEGQRGVIVNTASVAAFEGQIGQAAYAASKGGVVALTLPAARELAGWGIRVVTVAPGLFDTPLLQGLPEKAKASLAAQVPFPPRLGRPEEYAALVLHILENPMLNGEVVRLDGALRMAPR", "soluble on expression in E. coli": "soluble"}
{"sequence": "MESFQTIVDNEVLMESCGIQQESKIKNFPWAVSFTVDGVNRLGGSIISPYHIITAAHGFITTIGSRGNLCENKNWKKPNSSIYRSIKFLRDTRKVAYGGTCIRGHTDKYPNDPRCKKSDVIHNKVRAVLVDGEFASSNCLKGHDWAIVEVEKRIHFSENVRPICLPRPNMYYTKSLAVPGWGRIFNESGPLIHEIPMRIDRDCKRPWSDRLPADADDFICATSMNVSNYSAPRTCHGDSGGGLEYRDDNYGRAFLIAITSFGTRGCPSNMLARFTRVDMYLNLICNYTGVCY", "soluble on expression in E. coli": "not soluble"}
{"sequence": "MESKRNKPGKATGKGKPVGDKWLDDAGKDSGAPIPDRIADKLRDKEFKSFDDFRKAVWEEVSKDPELSKNLNPSAKSSVSKGYSPFTPKNQQVGGRKVYELHHDKPISQGGEVYDMDNIRVTTPKRHIDIHRGK", "soluble on expression in E. coli": "soluble"}
{"sequence": "MESKSVDTRSIYRELGATLSYNMRLGNGMEIEPWLKAAVRKEFVDDNRVKVNSDGNFVNDLSGRRGIYQAGIKASFSSTLSGHLGVGYSRGAGVESPWNAVVGVNWSF", "soluble on expression in E. coli": "not soluble"}
{"sequence": "MESSVDEEALHQLYLWVDNIPLSRPKRNLSRDFSDGVLVAELIKFYFPKMVEMHNYVPANSLQQKLSNWGHLNRKVLNKLNFSVPDDVMRKIAQCSPGVVELVLIPLRQRLEERQRRQKLGVGSLQELAPQDSSGYMDMGLPQKVRGEGAPALGEQLREGRPLASRPPGYNQALQGDPSFVLQIAEKEQELLASQETVQVLQMKVKRLEHLLQLKNVRIDDLSRRLQQAERKQR", "soluble on expression in E. coli": "soluble"}
{"sequence": "METALVSIIMPMYNAGKFLSKSIESVLEQTYQNWELLLIDDGSKDDSIDIALAFMEKDSRIFLLKNEQNMGIAKTRNKGIEASKGQYIAFLDSDDLWLPNKLEVQVKWMEEKKLLFTCSSYFVCNENGNITHERNFSEGPQTYQDLLKTNTIGCLTVVVESNLLKRHLMPDLKHEDYATWLNILKEINTVYFINEKLAIYRKLTTSTSSNKWNTISWVWKILRQNEQFSVIKSSFYLMRFLFYTTFKYAKNELEHHHHHH", "soluble on expression in E. coli": "soluble"}
{"sequence": "METKQKERIRRLMELLKKTDRIHLKDAARMLEVSVMTIRRDLSQDDDPLPLTLLGGYIVMVNKPASSTNMPLPAKKTHHRDDLPVAILAAGLVRENDLVFFDNGPEMPLVISMIPDDITFTGICYSHRVFIALNEKPNATAILCGGTYRAKSDAFYDANNPSALDSLNPRKVFISASGVHEHFGVSWFNPDDLAAKRKAMERGLRKILLARHALFDEVAPASIGPLSAFDVLISDRPLPTDYAVHCRNGSVKVITPDSESE", "soluble on expression in E. coli": "not soluble"}
{"sequence": "METNLFKLSLDDVETPKGSMLDLKISQSKIALPKNTVGGTILRSDLLANFLTEGNFRASVDLQRTHRIKGMIKMVATVGIPENTGIALACAMNSSIRGRASSDIYTICSQDCELWNPACTKAMTMSFNPNPCSDAWSLEFLKRTGFHCDIICVTGWTATPMQDVQVTIDWFISSQECVPRTYCVLNPQNPFVLNRWMGKLTFPQGTSRSVKRMPLSIGGGAGAKSAILMNMPNAVLSMWRYFVGDLVFEVSKMTSPYIKCTVSFFIAFGNLADDTINFEAFPHKLVQFGEIQEKVVLKFSQEEFLTAWSTQVRPATTLLADGCPYLYAMVHDSSVSTIPGDFVIGVKLTIIENMCAYGLNPGISGSRLLGTIPQ", "soluble on expression in E. coli": "soluble"}
{"sequence": "METPIAEELAKKQKSISVAEFFEKNRQILGFDSAPRSLITTVKEAVDNALDACEEAGILPDILVQVERTGPDYVTVIIEDNGPGIVREQIPKVFAKLLYGSRFHALKQSRGQQGIGISAAVLYAQMTAGRHTKILSKTSPTAPAHYYELMINTSTNEPDILVDEVRDWFRPHGTQIELEMRAAYVKGRRQSIYEYLKATAIVNPHARITLIDPDGNEEVFERATDKMPEPAEEILPHPEGIELGTLMKMLHYTERQKLAPFLRYSFCKIGLLTAEEICKAAGLDPEIDPHALGRHEARKLIEAFEKVKIMAPPTDCLSPIGEDLIYRGLEKETTVDFIATSTRKPAVYSGNPFVVEVGMAYGGNLPKEEKISIMRFANRVPLLYQQGGCVTTHAVEDIKWKQYGLNQPGGGIPVGPVILLIHVASINVPFTSESKDAIADIPVIKEEIDLAIKEVARKLKHYLSKQSNLKKRREKEIIITKVLPKLAAKVAHVLEKDVPDINPVVAKIMGNLLVHRVIKNNGDGTVDVAIKVKNFGTSAYSFRVHEMLPCKVSGAKPEPKVVTMGNDYDYVWDISASAGSSKVLSYKIESASEEELQKLPQLIVEGIEEELVTGAKAFKGV", "soluble on expression in E. coli": "soluble"}
{"sequence": "METPVPKPRTKFEPSSPEPTLPPRPPVKPPRAVANSTAVQNFGNVLGELRLNLNETISSQDPPGIGFIEVSPGTSMSPPQRHAPPPPRPPPPAGWKQHPVIPERIQLNRPLPSLPIDVSLTPVYSEPSTSSPSSTNCYENHNSSVVENPLYLSLDTYRSISGITPSPSNAPTTSPDCDELREWLTEEEENESCSSSRPENLNASIPAPIPGDDSRPSIDSEENPYTPCPRRSDYDNSEFIGSTIDPFDDSFYTDNTTNNSHQNLYVSPQFVKEKTKSECDRYENVVEICSSPDPPPTHLYVNVPPIYPSADNIISSESDDVFRDEGKMKIDGSSITFVGFVSLTSSKKEKRLHCRLRNMQLSFHDDEDSTEPSNGTFDIKGIYLFRHMASDTPYILIHVGEKRNVISFIPEDPPNLWMFFLSEAWLSLNYGLTSVLRDADELTICGITWIKHGTTGEWKICSAGINGLTLHYMLVDAKDRIYNRNSERSDAGTSFMSTVGSIIGDELVEVDLRKVMTMRERIDKSEFCPNARHKRGPFSITLHGVTLYIDSRDDSTTSHWYEAIEALLKRPATRLENLRLTGDNIPVIVDKCIRFVSAYGMKCEGIYRRNGKVTEAKTILTKLTEDPVGYYPVHENDETVYAVADVLRQFFRKLDAPLFPSSSQADLFDLATESQSDELCARYAQLINTFELVHRSTLKKLIGHLKNVSEHAQENRASVENLAKVFAASLFLTDAMDEKVFSESYNHQINVLIHLTTGYDVVFQISIEEELSRQMVNDAEKKSFNAKKPSPDFIVAIHVWEKENRPFNVKMSLASEEVCREAIAKRGFDGPPDSPYAIFECLAGGNLIRRLPNAQKMSKCVLQWIDWNCKDAYLLFDHDKYQFNGTDMSCFTGKIKIAEPGSRTFKSYEVKIENGTSIVAFRNEKLWKAWPMDDSIWYVGTEPTRKSPNLFNATMICSTKTGYSSSRFPGFCFSFKEETDRNRWLTALSHFTKSIDSEPLVYI", "soluble on expression in E. coli": "not soluble"}
{"sequence": "METSIFDDVETRIDNNEIIAQQHAEDLFELYLKIQNAEKDSVIDIRKEASADHEEMLCELRNDLSQVMKMGMVNLSMQIIAQERNNRRKVNQHIINIKSKTEEIDKFFQRAISVLGAPPGYPAKKEEKAKTKNYLIQFGEVLLSISTMVTNLEQSLACYELKEVLMNGMISQIRTQISDFNKVIPNFKRILNSENQEIDPDNYEKFVDMKKRLFAMVNCLHLISEKRGEMNRLIEEKMNLSMPQFQNLQISNGT", "soluble on expression in E. coli": "not soluble"}
{"sequence": "MEVFGKSPMVVTSANVIYLSAILGRDCDGHKCDWKCENENVCGNMYRCKLTGLTHVCDKNCNQRILYDNHSSLCRASGRIFPLSSVEEQAVKGVRRKLDAAESHPSESCSFKRRRRDAQFHASPFERSFTAVSPICSPAGDGMELV", "soluble on expression in E. coli": "not soluble"}
{"sequence": "MEVKAFLERETLDRTLGVRYLKAEKDEVVAELVVTPKVHQPFGFLHGGATVALAESVASVGGFLNCPPGHAAFGLEINCNHLRKKREGTIRAVGRPLHVGRTTQVWEVKVYDEEGRLVAASRCTLAVVPLEPAKEPA", "soluble on expression in E. coli": "soluble"}
{"sequence": "MEVKKVLVSAFLLTTCLMSGQAQRRNEIQVPDLDGYTTLKCDFHMHSVFSDGLVWPTVRVDEAYRDGLDAISLTEHIEYRPHKQDVVSDHNRSFDLCREQAEKLGILLIKGSEITRAMAPGHFNAIFLSDSNPLEQKDYKDAFREAKKQGAFMFWNHPGWDSQQPDTTKWWPEHTALYQEGCMHGIEVANGHLYMPEAIQWCLDKNLTMIGTSDIHQPIQTDYDFEKGEHRTMTFVFAKERSLQGIREALDNRRTAAYFHELLIGREDLLRPFFEKCVKIEEVSRNEQGVTLSITNVTDLVLKLKKTAHDTLLVYFRDMTLKPHTRYTVRIGFKQGIKGGDVNFEVTNFIVAPDKGLKYTISL", "soluble on expression in E. coli": "not soluble"}
{"sequence": "MEWLNEPPNWSHSDQKIIVTTSPKTDFWRITHYGFIRDSGHFYFDRVSTDFVVDVKIKGNYKDLYDQAGIMIRADEQHWIKTGIEYVDGVQNLSAVVTHNYSDWSFTPLLNPPNIFQVRVERCQEAIHIAYLDEYSRYVPFRMAYFPVALDIQVGIMCASPQGNGYEVIFEDYQLTKKGEKLSLEHHHHHH", "soluble on expression in E. coli": "not soluble"}
{"sequence": "MEYLFLRRKKTRYTSVRQKTLLYRAASRRWEKEFALRTDVRRIDALIYKGILYLMEVRQVFLDSSLSLKTLSAMLETNQTYLSNVVNRYFGCNLKELVNTYRVEYAKELLRSGRCPIEEVPVRSGFGSKSPFYVAFGKVTGMTPRQYVAHERNPLKQEENN", "soluble on expression in E. coli": "not soluble"}
{"sequence": "MEYLFLRRKRTTATSERQKTLLFKAAERQWKEEFAGKETDIRKVDCNIYKGILYQLEIRQVFLDTSLSLKKLSALLETNQTYLSNVVNKYFGCNLKELVNTYRVEYAKELLCSRRCALTELPCSCGFASKSAFYSAFSRIVGVSPLSYQTQERRRHHLQAVNLEHHHHHH", "soluble on expression in E. coli": "not soluble"}
{"sequence": "MEYRITGKGVEISEAIKNYLEKRLDKIDRVIYDDDLVSFNVRIEKDGKNQYVVKFNMNLKGNIINVEERHPDIYTAIDFASDALEKQVKRLKERLKNHPHRSSALVETPLEEPGEFSPSDKVSSVKRVSLLNLDLDEAVMQMDELNHRFLVFRNVNTGEINLLYRDENGDIHLIEMAE", "soluble on expression in E. coli": "not soluble"}
{"sequence": "MEYTQIPSFALYNNASIFQFFPRNKRLSTHQKSCLDEHARKMAVFMMERQEEYRYYENLANQEQFSDDACFSDTGMDSGFCSGDTSTGQSASTSPAPAHLIPNPFFDPEYVASKTTMKLVANPFYNPKLAKEIKKKSTHTSKFQ", "soluble on expression in E. coli": "not soluble"}
{"sequence": "MFAPALAYPRPMPELPEVETTRRKIEPLLRGKTIERIVHDAPHRYRNTERAHGRQVRGLTRRGKYLLLHLAAADAAEDEPHDLELIVHLGMTGGFRLEEGPHTRVTFELGSGEKLYFNDPRRFGKVVAVAPGDYASMPTLAAMGPEPLSDDFTEAEFVALAARCGPVKPWLLSQKPVSGVGNIYADESLWHARLHPAQTRLNADEAGRLYRAIREVMAAAVDKGGSSLGNGVGNYRQHDGEGGGFQHSHHVYGRAGQPCDRCGTPIEKIVLGQRGTHFCPVCQPLRTDRSA", "soluble on expression in E. coli": "not soluble"}
{"sequence": "MFAYDRLALDLAVFNLKDVDSGNSSSSERSSPPTRIMSQAQNINDESGSSGYGSPTRTPLASPSNDIFSSVLPLQVQRAFSAQSPEEITRHFGVSPSPQAVKPVPEVQQQREQAQVSQTSAQGLAAVDGFSMAEIAGFAELLSSPKKTPPPRYQCHICYATGHHYISDCPQRFNTPYDELTPYQGRKKCYGEFTCQLCKRKWNSQNSVANEPQSCIKCHVPVFPHKQLPVEKAVTLGLIKAQNVTKVAPIGHGRPPARKHEEISRRH", "soluble on expression in E. coli": "not soluble"}
